In test [1] the target is T1, human GIP receptor on HEK293 cells (human) (UniProt P48546).
T1 sequence: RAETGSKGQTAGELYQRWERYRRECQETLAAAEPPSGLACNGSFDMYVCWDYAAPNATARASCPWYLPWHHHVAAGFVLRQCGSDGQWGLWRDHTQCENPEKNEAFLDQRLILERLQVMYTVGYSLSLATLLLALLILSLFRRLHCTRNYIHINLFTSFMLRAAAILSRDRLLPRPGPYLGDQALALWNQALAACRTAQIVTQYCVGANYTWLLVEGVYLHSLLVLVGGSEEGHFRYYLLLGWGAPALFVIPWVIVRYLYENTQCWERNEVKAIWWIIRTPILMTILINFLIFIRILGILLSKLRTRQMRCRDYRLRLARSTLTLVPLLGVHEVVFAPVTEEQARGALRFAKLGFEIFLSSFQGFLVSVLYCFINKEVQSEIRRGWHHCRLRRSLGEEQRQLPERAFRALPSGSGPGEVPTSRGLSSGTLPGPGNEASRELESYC

The next test has as its target GIP(1–42) peptide (UniProt P09681).
In test [2] the target is T1, human GIP receptor on HEK293 cells (human). The test can be described thus: fluorescent microvolume assay technology (FMAT) on cells; receptor ligand competition with unlabelled peptides against AlexaFluor 647-labeled GIP on human GIPr-overexpressing cells; data not shown.
Test [3] has as its target T2, human GIP receptor on HEK293 cells (human, UniProt P48546).
T2 construct: glucose-dependent insulinotropic polypeptide receptor, human, full-length receptor gene; also called HEK293 human GIPr; hGIPr; source: HEK293, stably transfected (pIRESneo3), on cells

For the next test, the target named is T3, biotinylated GIPr ECD (Homo sapiens, biotin (EZ-link Sulfo-NHS-LC-Biotin), positions not stated).
T3 construct: glucose-dependent insulinotropic polypeptide receptor, human, extracellular domain; same construct as m4, biotinylated; held on Super Streptavidin biosensors; also called soluble biotinylated GIPr ECD
T3 chain: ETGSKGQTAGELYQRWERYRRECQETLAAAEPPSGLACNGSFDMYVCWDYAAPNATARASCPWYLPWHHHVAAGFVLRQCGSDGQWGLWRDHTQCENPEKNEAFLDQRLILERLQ
The test can be described thus: BLI; Octet RED (reflectometric interference spectroscopy); biotinylated GIPr ECD at 1.2 μg/ml on Super Streptavidin biosensors; scFv at ~0.5 μM (12.5 μg/ml), single concentration; PBS with kinetics buffer; 1:1 Langmuir. The following applies: both partners purified.

Test [4] addresses T4, GIPr ECD (extracellular domain of the human GIP receptor) (Homo sapiens).
T4 construct: glucose-dependent insulinotropic polypeptide receptor, human, extracellular domain; also called GIPr extracellular domain
T4 chain: T3 chain
The test can be described thus: SPR; Biacore 2000; Gipg013 IgG amine-coupled to a CM5 chip at low density (~139 resonance units), GIPr ECD in solution; 25 °C, 30 μl/min, HBS-N (10 mM HEPES, pH 7.4, 150 mM sodium chloride); 1:1 Langmuir model. To be noted: both partners purified. (In general: In SPR one partner is held on a chip, and binding of the other changes the refractive index at the surface.)

Test [5] has as its target T5, human GLP-1 receptor on overexpressing cells (Homo sapiens, UniProt P43220).
T5 construct: glucagon-like peptide 1 receptor, human; also called hGLP-1r; source: stably transfected cell line, on cells
The test can be described thus: fluorescent microvolume assay technology (FMAT) on cells; 0.25 μg/ml IgG with AlexaFluor 647-labeled goat anti-human IgG on stably transfected cells (5000 cells a well), Hanks' balanced salt solution with 0.1% BSA, room temperature, 3 h. To be noted: one partner purified.

For test [6], the target named is T6, mouse GLP-1 receptor on overexpressing cells (Mus musculus, UniProt O35659).
T6 construct: glucagon-like peptide 1 receptor, mouse; also called mGLP-1r; source: stably transfected cell line, on cells
T6 sequence (O35659 22-463): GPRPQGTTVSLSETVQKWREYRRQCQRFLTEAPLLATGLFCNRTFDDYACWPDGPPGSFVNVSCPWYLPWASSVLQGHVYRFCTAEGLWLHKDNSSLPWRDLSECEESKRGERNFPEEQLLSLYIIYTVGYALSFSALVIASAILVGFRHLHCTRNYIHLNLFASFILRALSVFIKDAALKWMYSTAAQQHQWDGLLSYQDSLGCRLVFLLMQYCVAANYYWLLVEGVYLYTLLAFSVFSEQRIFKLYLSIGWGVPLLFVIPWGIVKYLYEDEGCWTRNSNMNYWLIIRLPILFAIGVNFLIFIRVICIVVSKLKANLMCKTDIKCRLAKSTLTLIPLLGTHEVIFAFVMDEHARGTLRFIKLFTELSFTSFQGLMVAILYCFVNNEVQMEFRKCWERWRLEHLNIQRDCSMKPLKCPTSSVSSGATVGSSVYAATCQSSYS
The test is described as above. To be noted: one partner purified.

Test [7] addresses T7, rat GLP-1 receptor on overexpressing cells (Rattus norvegicus, UniProt P32301).
T7 construct: glucagon-like peptide 1 receptor, rat; also called rGLP-1r; source: stably transfected cell line, on cells
Described as above. To be noted: one partner purified.

Test [8] deals with T8, dog GLP-1 receptor on overexpressing cells (Canis lupus familiaris, UniProt A0A8I3NUR9).
T8 construct: glucagon-like peptide 1 receptor, dog; also called dGLP-1r; source: stably transfected cell line, on cells
Described as above. The following applies: one partner purified.

Test [9] concerns the target T9, human glucagon receptor on overexpressing cells (Homo sapiens, UniProt P47871).
T9 construct: glucagon receptor, human; also called GCGr; hGCGr; source: stably transfected cell line, on cells
The description is as above. To be noted: one partner purified.

The target in test [10] is T10, mouse glucagon receptor on overexpressing cells (Mus musculus, UniProt Q61606).
T10 construct: glucagon receptor, mouse; also called GCGr; mGCGr; source: stably transfected cell line, on cells
T10 sequence (Q61606 27-485): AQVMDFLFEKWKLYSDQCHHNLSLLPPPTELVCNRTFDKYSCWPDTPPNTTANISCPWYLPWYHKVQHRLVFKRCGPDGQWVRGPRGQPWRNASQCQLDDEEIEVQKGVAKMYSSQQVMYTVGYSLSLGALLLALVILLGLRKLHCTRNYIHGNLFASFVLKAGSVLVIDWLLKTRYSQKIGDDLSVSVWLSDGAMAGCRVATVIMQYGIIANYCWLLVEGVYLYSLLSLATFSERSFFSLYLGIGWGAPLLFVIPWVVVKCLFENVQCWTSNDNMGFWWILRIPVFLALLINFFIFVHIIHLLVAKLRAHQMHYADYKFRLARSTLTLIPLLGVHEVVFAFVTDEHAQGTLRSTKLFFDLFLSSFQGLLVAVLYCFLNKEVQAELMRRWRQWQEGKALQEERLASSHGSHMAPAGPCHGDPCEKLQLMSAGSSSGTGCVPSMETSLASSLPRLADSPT
The test is described as above. The following applies: one partner purified.

Test [11] addresses T11, rat glucagon receptor on overexpressing cells (Rattus norvegicus, UniProt P30082).
T11 construct: glucagon receptor, rat; also called GCGr; rGCGr; source: stably transfected cell line, on cells
The description is as above. The following applies: one partner purified.

Test [12] deals with T12, mouse GIP receptor on HEK293 cells (Mus musculus, UniProt Q0P543).
T12 construct: glucose-dependent insulinotropic polypeptide receptor, mouse, full-length receptor gene; also called mGIPr; source: HEK293, stably transfected (pIRESneo3), on cells
T12 sequence (Q0P543 19-460): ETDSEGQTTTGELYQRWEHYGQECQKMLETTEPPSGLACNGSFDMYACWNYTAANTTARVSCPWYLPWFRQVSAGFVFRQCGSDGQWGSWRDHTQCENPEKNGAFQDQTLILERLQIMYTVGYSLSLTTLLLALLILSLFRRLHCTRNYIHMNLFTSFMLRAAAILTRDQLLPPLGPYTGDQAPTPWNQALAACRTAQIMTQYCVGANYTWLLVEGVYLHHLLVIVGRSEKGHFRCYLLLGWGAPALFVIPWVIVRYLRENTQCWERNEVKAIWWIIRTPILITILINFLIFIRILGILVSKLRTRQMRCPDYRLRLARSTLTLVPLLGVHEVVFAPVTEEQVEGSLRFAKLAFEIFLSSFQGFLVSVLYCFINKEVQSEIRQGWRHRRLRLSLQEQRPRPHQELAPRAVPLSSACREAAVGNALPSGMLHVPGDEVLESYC
The description is as above. The following applies: one partner purified.

The target in test [13] is T2, human GIP receptor on HEK293 cells. The test can be described thus: fluorescent microvolume assay technology (FMAT) on cells; receptor ligand competition: dilution series of antibody against 0.5 nM AlexaFluor 647-labeled GIP on HEK293 human GIPr cells, Hanks' balanced salt solution with 0.1% BSA, room temperature, 1–2 h. To be noted: one partner purified.
For test [14] the target is unchanged. The source holds these as a separate data set.
Test [15] has as its target T4, GIPr ECD (extracellular domain of the …). The test can be described thus: SPR; BIAcore, Gipg013 Fab and GIPr ECD; who was immobilised is not told for the Fab. The following applies: both partners purified.

Read-outs that look alike come from different tables or passages of the source.

T9 sequence (P47871 26-477): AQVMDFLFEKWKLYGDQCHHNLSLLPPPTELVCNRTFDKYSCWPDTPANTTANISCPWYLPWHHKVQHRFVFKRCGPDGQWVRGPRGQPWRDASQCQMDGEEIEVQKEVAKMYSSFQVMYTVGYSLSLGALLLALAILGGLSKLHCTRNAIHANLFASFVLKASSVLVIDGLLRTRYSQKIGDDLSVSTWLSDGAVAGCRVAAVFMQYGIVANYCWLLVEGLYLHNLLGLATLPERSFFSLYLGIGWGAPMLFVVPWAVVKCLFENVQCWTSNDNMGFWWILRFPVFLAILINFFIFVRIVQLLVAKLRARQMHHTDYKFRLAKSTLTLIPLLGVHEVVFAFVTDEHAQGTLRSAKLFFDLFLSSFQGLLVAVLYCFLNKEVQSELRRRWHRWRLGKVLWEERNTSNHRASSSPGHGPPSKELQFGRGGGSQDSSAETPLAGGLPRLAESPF
T5 sequence (P43220 24-463): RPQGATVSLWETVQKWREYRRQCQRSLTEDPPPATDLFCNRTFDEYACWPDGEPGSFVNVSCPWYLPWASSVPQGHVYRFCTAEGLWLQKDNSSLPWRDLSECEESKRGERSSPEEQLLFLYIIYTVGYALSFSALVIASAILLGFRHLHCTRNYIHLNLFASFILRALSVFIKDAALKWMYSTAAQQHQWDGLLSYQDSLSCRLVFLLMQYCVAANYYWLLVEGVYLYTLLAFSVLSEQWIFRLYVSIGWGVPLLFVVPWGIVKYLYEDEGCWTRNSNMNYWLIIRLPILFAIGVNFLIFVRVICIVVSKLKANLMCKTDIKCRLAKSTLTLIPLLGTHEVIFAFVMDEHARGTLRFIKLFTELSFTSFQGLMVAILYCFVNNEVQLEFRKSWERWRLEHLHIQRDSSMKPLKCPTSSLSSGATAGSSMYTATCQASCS
T11 sequence (P30082 27-485): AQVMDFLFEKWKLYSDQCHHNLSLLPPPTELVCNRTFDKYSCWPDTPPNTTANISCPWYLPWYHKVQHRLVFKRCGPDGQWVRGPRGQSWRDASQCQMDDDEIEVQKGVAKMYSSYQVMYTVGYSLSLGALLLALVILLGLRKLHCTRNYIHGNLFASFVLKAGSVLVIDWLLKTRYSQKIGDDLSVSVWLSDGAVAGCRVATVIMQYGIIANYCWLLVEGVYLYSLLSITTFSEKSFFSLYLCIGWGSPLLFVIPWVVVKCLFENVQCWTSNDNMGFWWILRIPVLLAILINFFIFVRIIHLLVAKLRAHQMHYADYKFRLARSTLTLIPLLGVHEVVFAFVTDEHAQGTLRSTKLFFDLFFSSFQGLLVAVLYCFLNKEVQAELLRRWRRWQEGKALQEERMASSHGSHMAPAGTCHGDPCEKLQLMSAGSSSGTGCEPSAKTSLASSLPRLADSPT
T7 sequence (P32301 22-463): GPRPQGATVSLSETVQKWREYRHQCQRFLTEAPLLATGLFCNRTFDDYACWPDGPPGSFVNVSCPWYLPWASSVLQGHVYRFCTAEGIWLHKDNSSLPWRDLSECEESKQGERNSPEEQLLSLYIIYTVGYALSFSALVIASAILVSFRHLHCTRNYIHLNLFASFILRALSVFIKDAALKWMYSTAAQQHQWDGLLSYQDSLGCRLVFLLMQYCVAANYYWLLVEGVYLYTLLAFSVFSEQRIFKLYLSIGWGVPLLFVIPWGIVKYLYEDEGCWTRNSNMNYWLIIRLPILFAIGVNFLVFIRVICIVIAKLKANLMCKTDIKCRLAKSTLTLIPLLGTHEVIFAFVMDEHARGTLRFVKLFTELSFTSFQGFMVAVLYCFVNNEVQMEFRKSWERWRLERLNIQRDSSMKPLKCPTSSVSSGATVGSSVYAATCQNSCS

In test [1], Pro3GIP (peptide) yielded a cAMP HTRF assay, agonism in HEK293 human GIPr cells (partial, to 83% of the response with GIP) of 180 nM.
As for “biotinylated GIPr ECD (domain or fragment)”, in the test with GIP(1–42) peptide, the cAMP assay on HEK293 GIPr cells: soluble GIPr ECD competes with the cell surface GIPr for GIP amounted to 7 µM.
Usually IC50 stands for the point on the concentration scale where inhibition reaches its midpoint. Regarding GIP(7–30) (peptide), the cAMP HTRF assay, antagonism of GIP-induced cAMP production in HEK293 human GIPr cells in test [1] amounted to 230 nM. This molecule also displayed a concentration for half-maximal inhibition (IC50) in test [2] of 83 nM.

B1: Gipg013 scFv (scFv, V domains shown)
VH: QVQLQQSGAEVKKPGSSVKVSCKASGGTFSSYAISWVRQAPGQGLEWMGGIIPTFGTANYAQKFQGRVTITADESTSTAYMELSSLRSEDTAVYYCAQGPIVGAPTDYWGKGTLVTVSS
VL: SYVLTQPPSASGTPGQRVAISCSGSNSNIGSNTVHWYQQLPGAAPKLLIYSNNQRPSGVPDRFSGSNSGTSASLAISRLQSEDEADYYCAAWDDSLNGVVFGGGTKVTVL
notes: VH as in the heavy chain of m1; VL as in the light chain of m1; phage vector pCantab6 is named for the libraries
By Kd is commonly meant the constant that tells how readily two partners part at equilibrium. The low end stands for tighter binding, the high end for weaker binding. As usually defined, the koff is the rate constant with which the complex falls apart. A low value points to a long-lived complex. As a reminder, the kon is the rate constant with which the complex forms. Read a high kon as fast association. For the molecule B1, the cAMP HTRF assay, antagonism of GIP-induced cAMP production in HEK293 human GIPr cells (blocks GIP on GIPr) in [3] came out at 233 nM. In the test with biotinylated GIPr ECD, this molecule came in with a Kd of 25 nM, a koff of 0.00188 s⁻¹ and a kon of 74500 M⁻¹ s⁻¹.

B2: Gipg013 IgG (antibody, V domains shown)
VH: B1 VH
VL: B1 VL
notes: VH of Gipg013; also in PDB 4HJ0 (heavy chain of the Fab, chains P and C); heavy chain constant region of human IgG1 (full-length antibody in the IgG1 format); the light chain is in PDB 4HJ0 (chains Q and D); IgG1; converted from the scFv clone; also called GIP013; Gipr013; source: mammalian cells (variable genes cloned into the pEU vectors), purified; copies: 2 + 2
Take B2: in [4], the affinity, expressed as Kd, was 23 nM. Moreover, in test [4], the koff worked out at 0.00369 s⁻¹. The kon in test [4] turned out to be 159000 M⁻¹ s⁻¹. For the same molecule, the binding result in [5], in test [6], in test [7], in test [8], in [9] and in test [10] was “no binding (tested: 0.25 μg/ml)” in each case. For the same molecule, the binding result in test [11] was “no binding (tested: 0.25 μg/ml)”; in test [12] it was “binds”. Further, the IC50 in test [13] amounted to 17.2 ± 6 nM.

B3: Gipg013 Fab (Fab, V domains shown)
VH: B1 VH
VL: B1 VL
notes: heavy chain of the Fab, PDB 4HJ0 chains P and C (final model Gln3-Val217, 206 residues); as the heavy chain of m1 up to the papain cut; light chain of the Fab, PDB 4HJ0 chains Q and D (final model Ser1-Glu213, 211 residues); as the light chain of m1; also called Gip013 Fab; source: papain digestion of the antibody
B3 showed a cAMP HTRF assay, antagonism of GIP-induced cAMP production in HEK293 human GIPr cells (blocks GIP on GIPr) in test [14] of 102 nM. Further, the Kd in [15] was determined as 40 nM.

For the origin of these results see PMC3707680, “Structural and Pharmacological Characterization of Novel Potent and Selective Monoclonal Antibody Antagonists of Glucose-dependent Insulinotropic Polypeptide Receptor” (The Journal of Biological Chemistry, 2013).
